Assay results as given in the nanobody polyreactivity screen of Harvey et al. (2022).

Test: yeast display, Sf9 membrane polyspecificity reagent, FACS + sequencing; frameworks hold sequencing errors
In short: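 After 36–48 hours of galactose induction, yeast (Saccharomyces cerevisiae BJ5465) displaying a synthetic nanobody library were stained at 4 °C for 1 hour with 10% biotinylated, detergent-solubilized Sf9 membrane reagent. Streptavidin microbeads enriched the stained cells before FACS sorting into low and high (top ~1%) gates on anti-HA and streptavidin fluorescence. Each clone's polyreactivity label reflects its gate of origin.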

| Sequence | polyreactivity (PSR sort gate) |
| --- | --- |
| QVQLVESGGGLVQAGGSLRLSCAASGRTFYEYAKGWYRQAPGKERELVAGITSGGSTNYADSVKGRFTISRDNEKNTVYLQMNSLKPEDTAVYYCAASYWGYEYDYWGQGTQVTVSS | low polyreactivity |
| QVQLVESGGGLVQAGGSLRLSCAASGSNFLHNAMGWYRQAPGKERELDAAISGTGGRTYYADSVKGRFTISRDTANNTVYLQMNGLKPEDTAVYYWAARGSHVSIPRYNYWGQGTQVTVSS | high polyreactivity |
| QVQLVESGGGLDQAGGSLRLSCAASGFTFRKNAMGWYRQAPGKERELVAVISYSGGSTYYADSVNGRFTISRDSANNTVYLQMNSQKPEDSAVYYCNAVGWTRYWRIGWSAYYYWGQGTQVTVSS | high polyreactivity |
| QVQLVESGGALVQAGGSLRLSCAASGSIFYKYTMGWYRQAPGKERELVAAISRSGGSTYYADSVKGRFTISRDNAKNTVYLQMNSLKTEDTAVYYCATTGRVPGEYWGQGTQVTVSS | high polyreactivity |
| QVQLVESGGGLVQAGGSLRLSCAASGSIIVRYAMGWYRQAPGKERELVAAISWSGGRTYYADSVKGRFTISRDNAKNTVYLQMNSLKPEDTAVYYCAADSSVRYRDTEDYWGQGTQVTVSS | low polyreactivity |
| QVQLVESRGCLVQAGVSLRLSCAASGSTFQSYAMGCYRQAPGKERELVAAISTSETDRTYYADSVKGRFTISRDNAKNTVYLQMISLKPEDTAVYYCNADGYSHGDWYGYWGQGTQVTVSS | low polyreactivity |
| QVQLVESGGGLVQAGGSIRLSCAASGRTFHYNVMGGYRQAPGNERELVAAITNTGGSTYYADSVKGRFTISRDNAKNTVYLQMYSLKPVDTAVYYCAAVIWGRRYGAYPYEYWGQGTQVTVSS | low polyreactivity |
| QVQLVESGGGLVQAGGSLRLSCAASGFIFYPYAMGWYRQAPGKERELVAVITSGGRTYYADSVKGRFTISRDNAKNTVYLQMNSLKPEDTAVYYCAARYGSIHWKANWPEYGYWGQGTQVTVSS | low polyreactivity |
| QVQLVESGGGLVQAGGSLRLSCAASGRTFGDYAMGWYRQEPGKERELVAGITGRDSTNYADSVKGRFTISRDNAKNTVYLQMNSLIREDTAVYYCNADFWYTDISYGLATYDYWGQGTQVTVSS | high polyreactivity |
| QVQLVESGGGLVQAGGSLRISCAASGSTFYRYPMAWYRQAPGKERELVAAISGSGGRTYYADSVKGRFTISRDNAKNTVYLQMNSLKPEYTAVYYCATRFGQRSDYWGQGTQVTVSS | high polyreactivity |
| QVQLVESGGGLVQAGGSLRLICAASGSIFRKNAMGWYRQAPGKERELVAAITGTGRTTYADSVMGRFTISRDNAKNTVYLQRNSLKPEDTAVYYCAADVNYYQHRLYYWGQGTQVTVSS | low polyreactivity |
| HDQHVESAGGLVQAGGSLRLSCAASGFILRWYAMGWYRQAPGKERELVAAISWSGGSTYYADSVKGRFTISRDNAKNTVYLQMNSEKPEVTAVYYCNAVNYRNKYDYWGQGTQVTVSS | high polyreactivity |
| HVQLVESGGGLVQAGGSLRLSCAASGFIFRYYAMGWYRQAPGKERELVAAISWSGTPTFYADSVKGRFTISRDNAKNTVYLQMNSLKPEDTAVYYCAAETTGYDSYIQYEYWGQGTQVTVSS | high polyreactivity |
| QVQLVETGGRLVQAGGSLRLSCAASGITLPKYAMGWYRPAPGKERELVAAISRSSGRTYYADSVKGRFTISRDNAKNTVYLQMNSLKPEDTAVYYCAASHGGYITRYNYWGQGTQVTVSS | high polyreactivity |
| QVQLVESGGGLVQAGGSLRLSCAASGSTFDQNGMGWYRQAPGKERELVATISTSAGTYYADSVKGRFTISRDNAKNTVYLQMNSLKPEDTAVYYCNADLGGQYKEFDYWGQGTQVTVSS | low polyreactivity |
| QVQLVESGGGLVQAGGSLRLSCAASGRIFLSNAMGWYRQAPGKERELVAAISLSGGRTYYADSVKGRFTISRDNAKNTVYLQMNSLKPEDTAVYYCAAEFYPIRYYGRYDYWGQGTQVTVSS | low polyreactivity |
| QVQLVESGGGFVQAGGSLRLSCAASGIIFDYDAMGWYRQAPGKERELVAAISKRGGSTYYADSVKGRFTISRDHAKNTVYFQMNSLKPEDTAVYYCAAVYAREAKRYDYWGPGTQVTVSS | high polyreactivity |
| QVQLVESGGGLVQAGGSLRLSCAASGSTYNNAMGWYRQAPGKERELVAAIRWSGGSTYYADSVKGRFTISRDNAKNTVYLQMNSLKPEDTAVYYCAARYRWSRKRYNDYDYWGQGTQVTVSS | high polyreactivity |
| QVQLVESGGGLVQAGGSLRLSCAASGRTFSTYAMGWYRQSPGKERELVAAITWRGASTYYADSVKGRFTISRDYAKNTVYLQMNSLKPEDTAVYYCATDAPDRTDSDSGFDAGYDYWGQGTQVTLSS | low polyreactivity |
| QVQLVESGGGLVQAGGSLRLSCAASGRTFWYNALGWYRQAPGKERELVAAISWSGGTTYYADSVKGRFTISRDNAKNTVYLQMNSLKPEDTAVYYCNAKYRGLAKYDYWGQGTQVTVSS | high polyreactivity |
| QVQLVESGGGLVQAGGSLRLSCAASGRTFFINAMGWYRPAPGKERELVAAIRVGAGSTYYADSVKGRVTISRDNAKYTVYLQMNSLKPEDTAVYYCAKRTATSTRKYDYWGQGTQVTVSS | high polyreactivity |
| QVQLVESGGGLVQAGGSLRLSCAASGYTFAYNGMGWYRQAPGKERELVAVIDWSTGDTYYADSVKGRFTISRDNAKNTVYLQMNSLKPEDTAVYYCAADFFEGLYVFWGQGTQVTVSW | low polyreactivity |

| Sequence | polyreactivity (PSR sort gate) |
| --- | --- |
| QVKLVESGGGLVQAGRSLRLICAASGFTFHYNSMGWYRQAPGKEREFVAAISGSGDRTYYADSGKGRFTISRDNAKNTVYLQMNSLKPEDTAVYYCATSVRQNYFYSYDYWGQGTQVTVSS | high polyreactivity |
| QVQLVESGGGLVQAGGSLRLSCAASGSTFPLYAMGWYRQAPGKERELVAAITGGGGRTYYADSVKGRFTISRDNAKNTVYLQMNSLKPEETAVYYCAASKQRYYRWWTTPGYDYWGQGTQVTVSS | low polyreactivity |
| QVQLVESGGGLVQAGGSLRLSCAASGSILYYNAMGWYRQAPGKERELVAAISQRGASTYYADSVKGRFTISRDNAKNTVYLQMNSLKPEDTAVYYCAARTRLTADPRYGISSKMYYWGQGTQVTVSS | high polyreactivity |
| QVQLVESVRGLVQAGGSLRLSCAASGFIFRSYAMGWYRQAPGKEREFVAAISRSGGRTYYADSVKGRFTISRDNAKNTVYLQMNCLKPEDTAVYYCAATVGGSYTFDYWGQGTQVTVSS | high polyreactivity |
| QVQLVESGGGLVQAGGSLRLSCAASGFTLGSKVMGWYRQAHGKERELVAGISQSGGRTFYADSVKGRFTISRDNAKNTVYLQMNSLKPEDTAVYYCAAGYYPYWGQGTLVTVSS | low polyreactivity |
| QVQLVESGGGLVQAGGSLRLSCDASVSIFQPYAMGWYRQAPGKERELVAAISSSGGSTTYADSVKGRFTISRDNAKNTVYLQMKSLKPEDTAVYYCAADSADDMGYWGQGTQVTVSS | low polyreactivity |
| QVQLEESGGGLGQAGGSLRLSCAASGSTFTVNGKGWYRQPPGKERELVASITWSGGSTYYADSVKGRFTLSRDNAKYTVYLQMNSLKPEDTAVYYCAADEKLYITGYDYWGQGTQVTVSS | low polyreactivity |
| QVQLVESGGGLVQAGGSLRLSCGASGFTFQNYAMGWYRQARGKERELVAAIDSRGGRTYYADSVKGRFTISRDNAKNTVYLQMNSLKPEDTSVYYCAVAENKRCGAVGYYYWGQGTQVTVSS | low polyreactivity |
| QVQLVESGGGLVQAGGSLRLSCAASGRIFRFYAMGWYRQAPGKERELVAVISTGGRTYYADSVKGRFTISRDNAKNTVYLQMNSLKPEDTAVYYCAAEYTTIGRYDGWHYNYWGQGTQVTVSS | high polyreactivity |
| QVQLVESGGGLVQAGGSLRLSCAASGGTFYQYAMGWYIQAPGKERELVAAISRSGGRTYYADSVKGRFTISRDNAKNTVYLQMNSLIPEDTAVYYCAADDVGPPDFYYWGQGTQVTVSS | high polyreactivity |
| QVQLHESGGGLVQVGGSQRLSCAASGNIFYNYAMGWYRHAQGKEREFDATINHGTSINYADSVKGRFTISRDNAKNTVYLQMNSLKPEDTAVYYCAADLSWTDNLFYWGQGTQVTVSS | low polyreactivity |
| QVQLVESGGGLVQAGRTLRLSCAASGFTFGRYAMGWYRQAPGKERELVAAISRNGGRTYYADSVKGRFTISRDNAMNTVYFQMNSLKPEDTAVYNCAADGYERKTAQYDYWGQGTQVTVSS | high polyreactivity |
| QVKLVESGGGLVQAGGSLRLSCAASGLIFQNYAMVWYRQAPGKERELVAAISRRGGRTNYADSVKGRFTISRDNAKNNVYLQMKSLKPEDTAVYYCNAKARQSYYYRFDYWGQGTQVTVSS | high polyreactivity |
| QVQLVESGGGLVQAGGSLRLSCAAFGFTFNAYALGWYRQAPGKERELVAGITSSGGGTYYADSVKGRFTISRDNAKNTVYLEMNSLKPEDTAVYYCNTYSYLFSRYGYWGQGTQVTVSS | high polyreactivity |
| QLQLVESGGGLVQAGGSLRLSCAASGIIFDFYAMGWYRQAPGKERELVAAITSSGGSTYYADSVKGRFTISRDNAKNTVYLQMNSLKPEDTAVYYCAADPWFYGYYDMDYWGQGTQVTVSS | low polyreactivity |
| QVQLVESGAGLVQAGGSLGLSCAASGSNFIYNAMGLYRQAPGKERELVAAITDRSTKYADSVKGRFTISRDNAKYSGYVQMNSLKTEDTAVYYSNAYVWRWRYDSWGQVTQVTVSS | low polyreactivity |
| QVQLEESGGGLVQAGGSLRLSCAASGRIFSNNVMGWYRQAPGKERELVATISTDGRTNYADSVKGRFTISRDNAKNTVYLQMNSLKPEDTAVYYCAATGVTILLSSKSDYWGQGTQVTVSS | low polyreactivity |
| QVQLVESGGGLVHAGGRLRLSCPPSGRIFSYYTMGWYRQAPGKERELVAAISRGVSTNYADSVKGRFTISRDNAKNTVYLQMNSLKPEYSAVYYCNARHTWYYKYLHEYWGQGTQVTVSS | high polyreactivity |
| QVQLVESGGGLVQAGGSLRLSCAASGFIFTLYTMGWYRPAPGKERELVAAISGRGGYTYYADSVKGRFTISRDNAKNTVYLHMNSLKPEDTAVYYCARAAYGFRARSGGDYWGQGTQVTVSS | high polyreactivity |
| QVQLVESGGGLVQAGGSLRLSCAASGSIYGTNAMGWYRKAPGKEREFVASITWGGGTYYADSVKGRFTISRDNAKNTVYFQMNSLKQEDSAVYYCATERVYTVYYDYDSWGQGTQVTVSS | low polyreactivity |
| QVQLEESAGGLVQAGGSLRLSCAASGSIFRVYGMGWYRQAPGKVTELVASITYRGGNTYYADSVKGRFTISRDNAKNTVYVQMNSLKPEDTAVFDCARSGYQKVGGFRSDYWGQGTEVTVSS | low polyreactivity |
